Data: patent US20240002500A1 (GUANGDONG FAPON BIOPHARMA, published 2024)

B1: 3Tigit-16 mouse monoclonal antibody (antibody, V domains shown)
VH: EVQLQQSGPELVKPGASVKMSCKASGFTFTDYFMDWVKQSRGASFEWIGRLNPNNGRTSYNQKFKGKATLTVDKSSSTAYMELNSLTSEDSAVYYCARGDLGRWYFDVWGAGTTVTVSS
VL: QIVLTQSPAIMSASPGEKVTMTCSASSSVSYMHWYQQKSGTSPKRWIYDTSKLASGVPTRFSGSGSGTSYSLTISSMEAEDAASYFCQQWSSNSLTFGAGTKLELKR
notes: Mouse monoclonal antibody from hybridoma
B2: 3Tigit-29 mouse monoclonal antibody (antibody, V domains shown)
VH: EVQLQQSGPELVKPGASVKISCKASGYTFTDYNMHWVKQSLGKSLEWIGYVNSFNGNTGYSQKFKSKVTLTVDRSSRTAYMDLRSLTSEDSAVFYCARSSRGGFAYWGQGTLVTVSA
VL: QIVLTQSPAIMSASPGEKVTMTCSASSSVSYMHWYQQKSGTSPKRWIYDTSKLASGVPARFSGSVSGTSYSLTISSMEAEDAATYYCQQWSSNSLTFGAGTKLELKR
notes: as for B1
B3: Tigit-5 mouse monoclonal antibody (antibody, V domains shown)
VH: QVQLQQPGAELVRPGASVKLSCKASGYSFTSYWMNWVKQRPGQGLEWIGMIRPSDSETRLNQMFKDKATLTVDKSSSTAYMQLSSPTSDDSAVYYCAGIHDYGHGAYWGQGTLVTVSA
VL: DIQMIQSPASLSVSVGETVTITCRASENIYSNLAWYQQKQGKSPQLLVYAASHLPDGVPSRFSGSGSGTQYSLKINSLQSEDFGSYYCQHFWGTPRTFGGGTKLEIKR
notes: as for B1
B4: 3Tigit-12 mouse monoclonal antibody (antibody, V domains shown)
VH: QVQLQQSGAELVRPGTSVKMSCKAAGYTFTNYWIGWVKQRPGHGLEWIGDIYPGGGYTNYDEKFKGKATLTADTSSRTAYMQLSSLTSEDSAIYHCVNGGYGSTYGYFDVWGAGTTVTVSS
VL: DIVMSQSPSSLPVSVGEKVTMSCKSSQSLLFSSDQKNYLAWYQQKPGQSPKLLIYWASTRESGVPDRLTGSGSGTDFTLTISSVKAEDLAVYYCQQYHKYPFTFGGGTKLEIKR
notes: as for B1

Assays:
hTIGIT-hFc [1] = target: T1, hTIGIT-hFc (human, UniProt Q495A1 22-141); experiment: FACS blocking on CHO-hCD112 cells; span of the fitted curve, unit from the y axis
T1 construct: also called antigen protein hTIGIT-hFc; human TIGIT recombinant protein carrying a human Fc tag; not shown: human Fc tag
T1 sequence (looked up): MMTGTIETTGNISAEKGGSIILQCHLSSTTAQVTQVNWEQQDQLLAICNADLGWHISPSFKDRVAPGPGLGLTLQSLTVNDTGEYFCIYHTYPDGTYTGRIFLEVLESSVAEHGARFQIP
Experimental: (§1) The CHO-engineered cell CHO-hCD112 cells recombinantly expressing full-length human CD112 were counted; centrifugated at 300 g for 5 min; resuspended with an FCM buffer; and cell density was adjusted to 4E+06 cell/mL for later use. […] According to an experimental design, in each well, 50 μL of the antigen protein and 50 μL of the cell (the volume of each cell added into a 96-well V-shaped plate being 2E+05 cell/well) were respectively added in the 96-well V-shaped plate; and incubation was performed in dark on ice for 30 min. Centrifugation (300 g/5 min) was performed; supernatant was discarded; 200 μL of the FCM buffer was added for washing once; centrifugation (300 g/5 min) was performed; and the supernatant was discarded. The antibody was added to the 96-well V-shaped plate (in 100 μL/well); and incubation was performed in dark on ice for 30 min. Centrifugation (300 g/5 min) was performed; supernatant was discarded; 200 μL of the FCM buffer was added for washing once; centrifugation (300 g/5 min) was performed; and the supernatant was discarded. Secondary antibodies (APC anti-human IgG Fc, 1:500 dilution) were added to the 96-well V-shaped plate (in 100 μL/well); and incubation was performed in dark on ice for 30 min. Centrifugation (300 g/5 min) was performed; supernatant was discarded; 200 μL of the FCM buffer was added for washing once; centrifugation (300 g/5 min) was performed; and the supernatant was discarded. 100 μL of the 1×PBS was added for resuspending, and on-machine detection was performed.

[2] = target: T2, human Tigit extracellular domain recombinant protein hTigit-his (Acrobiosystem, Cat.TIT-H2H3) (human, UniProt Q495A1 22-141); experiment: BLI epitope binning (ForteBIO QKe), hTigit-his on anti-Penta-HIS sensor; competitor R0300
T2 construct: extracellular domain; Bought; not shown: his tag
T2 sequence (looked up): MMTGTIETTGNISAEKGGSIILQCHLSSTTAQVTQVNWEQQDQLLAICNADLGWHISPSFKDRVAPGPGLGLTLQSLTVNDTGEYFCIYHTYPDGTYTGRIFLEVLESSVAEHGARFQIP
Experimental: Epitope competition analysis was performed on an anti-human TIGIT antibody with an MD ForteBIO QKe platform. An experimental method included: a human Tigit extracellular domain recombinant protein hTigit-his (Acrobiosystem, Cat.TIT-H2H3, lot-1336-76GF1-F9) carrying a his tag was diluted with an equilibration buffer (1×PBS+0.02% Tween 20), until the final concentration was 1.5 μg/ml. The anti-human Tigit antibody was diluted with the equilibration buffer (1×PBS+0.02% Tween 20), the final concentration being 5 μg/ml. After an anti-Penta-HIS biosensor (ForteBIO, Cat. 18-5122) was fully hydrated, first the hTigit-his recombinant protein was solidified for 180 seconds, then equilibrated for 30 seconds, and bound to the first anti-human Tigit antibody for 180 seconds, then equilibrated for 30 seconds, and then bound to the second anti-human Tigit antibody, binding time being 300 seconds. The whole reaction was performed at 25° C. and 1000 rpm; and finally, Octet analysis software was used to perform epitope binning analysis.

[3] = target: T3, full-length human TIGIT on cells (human, UniProt Q495A1 22-244); experiment: FACS blocking: antibody on CHO-hTIGIT cells, then hPVR-hFc, PE anti-human IgG Fc; blocked ligand hPVR-hFc
T3 construct: whole, on cells; The same protein is used for CHO-hTIGIT, PBMC and NK92-hTIGIT; the cells are named under assay; also called CHO-hTIGIT; hTIGIT
T3 sequence (looked up): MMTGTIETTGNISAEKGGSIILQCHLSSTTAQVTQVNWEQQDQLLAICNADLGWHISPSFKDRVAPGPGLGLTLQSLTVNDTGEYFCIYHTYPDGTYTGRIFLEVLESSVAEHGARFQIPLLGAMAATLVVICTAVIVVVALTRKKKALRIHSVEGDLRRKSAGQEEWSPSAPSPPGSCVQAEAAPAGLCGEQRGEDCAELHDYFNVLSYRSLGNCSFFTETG
Experimental: The CHO-engineered cells CHO-hTIGIT cells recombinantly expressing full-length human TIGIT were counted, and centrifugated at 300 g for 5 min, resuspended with an FCM buffer, and cell density was adjusted to 4E+06 cell/mL for later use. […] According to an experimental design, in each well, 50 μL of the antibody and 50 μL of the cell (the volume of each cell added into a 96-well V-shaped plate being 2E+05 cell/well) were respectively added in the 96-well V-shaped plate; and incubation was performed in dark on ice for 30 min. The ligand protein was added to the 96-well V-shaped plate (in 50 μL/well); and incubation was performed in dark on ice for 30 min. Centrifugation (300 g/5 min) was performed; supernatant was discarded; 200 μL of the FCM buffer was added for washing once; centrifugation (300 g/5 min) was performed; and the supernatant was discarded. Secondary antibodies (PE anti-human IgG Fc, 1:500 dilution) were added to the 96-well V-shaped plate (in 100 μL/well); and incubation was performed in dark on ice for 30 min. Centrifugation (300 g/5 min) was performed; supernatant was discarded; 200 μL of the FCM buffer was added for washing once; centrifugation (300 g/5 min) was performed; and the supernatant was discarded. 100 μL of the 1×PBS was added for resuspending, and on-machine detection was performed.

hTIGIT-hFc [4] = target: T1, hTIGIT-hFc; experiment: FACS blocking: antibody preincubated with hTIGIT-hFc, then CHO-hPVR cells, PE anti-human IgG Fc; blocked partner PVR on cells
Experimental: The CHO-engineered cells CHO-hPVR cells recombinantly expressing full-length human PVR were counted centrifugated at 300 g for 5 min, resuspended with an FCM buffer, the cells were added to the 96-well V-shaped plate; the volume of each cell added into a 96-well V-shaped plate was 2E+05 cell/well (being added in 50 μL/well); and incubation was performed in dark on ice for 30 min. Centrifugation (300 g/5 min) was performed; supernatant was discarded; 200 μL of the FCM buffer was added for washing once; centrifugation (300 g/5 min) was performed; and the supernatant was discarded. Secondary antibodies (PE anti-human IgG Fc, 1:500 dilution) were added to the 96-well V-shaped plate (in 100 μL/well); and incubation was performed in dark on ice for 30 min. Centrifugation (300 g/5 min) was performed; supernatant was discarded; 200 μL of the FCM buffer was added for washing once; centrifugation (300 g/5 min) was performed; and the supernatant was discarded. 100 μL of the 1×PBS was added for resuspending, and on-machine detection was performed.

hTIGIT-hFc [5] = target: T1, hTIGIT-hFc; experiment: FACS blocking: hTIGIT-hFc bound on CHO-hCD112 cells, then antibody, APC anti-human IgG Fc; blocked partner CD112; unit from the x axis Log[µg/mL]
Experimental: as §1

Row | Binder | Span (hTIGIT-hFc [1]) [MFI-APC] | epitope binning signal (name and unit not given) [2] | IC50 (read off the curve) [3] [nM] | IC50 (read off the curve) (hTIGIT-hFc [4]) [nM] | IC50 (hTIGIT-hFc [5]) [µg/mL]
1 | B1 | 215 | 0.0157 | ~0.3 | ~1 | 0.265
2 | B2 | 327 | 0.0254 | ~0.3 | ~1 | 0.196
3 | B3 | 212 | 0.668 | ~0.3 | ~1 | 0.143
4 | B4 | 278 | 0.0196 | – | – | 0.191
